Experimental findings from PMC6786761 are described below.

Substrate in this series: CN1CCC[C@@H]1c1cccnc1
Briefly: oxygen electrode, initial rates. The class given is biochemical, Paenarthrobacter nicotinovorans. The following applies: 0.1 M Na-HEPES pH 8.0, 0.1 M NaCl, 25 °C, 250 μM O2, apparent.

B1: D-6-hydroxynicotine oxidase (DHNO) (Paenarthrobacter nicotinovorans) (protein)
chain: MSSKLATPLSIQGEVIYPDDSGFDAIANIWDGRHLQRPSLIARCLSAGDVAKSVRYACDNGLEISVRSGGHNPNGYATNDGGIVLDLRLMNSIHIDTAGSRARIGGGVISGDLVKEAAKFGLAAVTGMHPKVGFCGLALNGGVGFLTPKYGLASDNILGATLVTATGDVIYCSDDERPELFWAVRGAGPNFGVVTEVEVQLYELPRKMLAGFITWAPSVSELAGLLTSLLDALNEMADHIYPSVFVGVDENRAPSVTVCVGHLGGLDIAERDIARLRGLGRTVSDSIAVRSYDEVVALNAEVGSFEDGMSNLWIDREIAMPNARFAEAIAGNLDKFVSEPASGGSVKLEIEGMPFGNPKRTPARHRDAMGVLALAEWSGAAPGSEKYPELARELDAALLRAGVTTSGFGLLNNNSEVTAEMVAEVYKPEVYCRLAAVKREYDPENRFRHNYNIDPEGS
Broadly, the Km is the substrate concentration at which the rate is half of its maximum. Consider B1, for which the Km was 840 ± 120 µM.
